Assay results published in PMC4678814 (Nucleic Acids Research, 2015).
Blank lines part the entries; values can stand above or below the molecule they belong to.

How the values were obtained:
[1] = target: GST-tagged ChYtm1 (Chaetomium thermophilum) (UniProt G0SFB5); test: BLI
[2] = target: T1, 6xHis-tagged ChYtm1 (Ytm1 from Chaetomium thermophilum) (Chaetomium thermophilum, UniProt G0SFB5 1-495); test: ITC
T1 sequence (looked up): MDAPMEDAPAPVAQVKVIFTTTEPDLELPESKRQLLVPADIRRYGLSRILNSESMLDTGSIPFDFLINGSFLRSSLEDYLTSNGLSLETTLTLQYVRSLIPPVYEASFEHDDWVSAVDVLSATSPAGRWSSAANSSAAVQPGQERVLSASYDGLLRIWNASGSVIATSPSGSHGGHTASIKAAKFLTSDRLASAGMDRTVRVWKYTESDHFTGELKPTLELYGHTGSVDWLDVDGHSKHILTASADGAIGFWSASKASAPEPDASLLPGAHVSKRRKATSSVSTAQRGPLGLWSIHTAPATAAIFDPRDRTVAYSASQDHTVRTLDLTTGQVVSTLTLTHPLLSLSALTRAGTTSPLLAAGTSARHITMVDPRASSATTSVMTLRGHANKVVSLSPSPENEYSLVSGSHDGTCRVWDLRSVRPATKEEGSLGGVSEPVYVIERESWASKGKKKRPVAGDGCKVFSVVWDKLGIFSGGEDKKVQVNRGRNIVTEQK

Kd [1]: 7 nM
Molecule: ChErb1 R486A mutant (from UniProt G0SCK6 1-801) (natural protein)

fold loss of affinity (KD) against the ChErb1-ChYtm1 interaction [1]: 100 fold
Molecule: 6xHis-ChErb1[R486E], full-length (from UniProt G0SCK6 1-801) (natural protein)

Kd [2]: ~9 nM
B1: 6xHis-ChErb1_(432–801) (β-propeller domain of ChErb1) (domain or fragment, Chaetomium thermophilum, UniProt G0SCK6 432-801, looked up)
chain: LPSPDELKPFPTVQQTIFRGHEGRVRSVAIDPTGVALATGGDDGTVRVWELLTGRQVWSVKLNGDEAVNTVRWRPTKDTFILAAAAGEDIFLMIPTHPSVTPALDQASRDILNAGFGHATNGKQQANLPPGKEPPGKWARPGTRLEDEGVLLRITVRSTIKAISWHRRGDHFATVSPSGQRSSVAIHTLSKHLTQIPFRKLNGLAQTASFHPLRPLFFVATQRSIRCYDLQKLELVKIVQPGAKWISSFDVHPGGDNLVVGSYDKRLLWHDLDLSNRPYKTMRFHTEAIRAVRFHKGGLPLFADASDDGSLQIFHGKVPNDQLENPTIVPVKMLKGHKVVNKLGVLDIDWHPREPWCVSAGADGTARLWM
